From the supplement of paper PMC9112550, “Optimization of the antimicrobial peptide Bac7 by deep mutational scanning” (BMC Biology, 2022)

system: Escherichia coli TOP10; assay: shrunken log2 fold change of peptide-encoding DNA abundance (4.5 h post-induction vs induction); higher = less antimicrobial activity (less host growth inhibition); conditions: time post-induction: 4.5 h; library: site-saturation at positions 5, 18, 19, 20
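Also: peptides expressed intracellularly from a pBAD plasmid library in pooled LB shake-flask culture, induced with 0.3% L-arabinose, DNA abundance read by NGS, three biological replicates, DESeq2 with apeglm shrinkage.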

Sequence | shrunken log2 fold change
RRIRKRPPRLPRPRPRPGEIPRP | 0.0945
RRIRERPPRLPRPRPRPEDQPRP | -0.0394
RRIRYRPPRLPRPRPRPHETPRP | -0.0345
RRIRHRPPRLPRPRPRPHDAPRP | -0.357
RRIRGRPPRLPRPRPRPKLEPRP | 0.507
RRIRWRPPRLPRPRPRPIWCPRP | 0.151
RRIRWRPPRLPRPRPRPIGMPRP | -0.131
RRIRNRPPRLPRPRPRPFFQPRP | -0.427
RRIRMRPPRLPRPRPRPWDQPRP | 0.0532
RRIRFRPPRLPRPRPRPCWNPRP | 0.151
RRIRTRPPRLPRPRPRPERQPRP | -0.0252
RRIRTRPPRLPRPRPRPQQDPRP | -0.18
RRIRWRPPRLPRPRPRPTWIPRP | 0.0497
RRIRERPPRLPRPRPRPDQDPRP | -0.00875
RRIRLRPPRLPRPRPRPCKPPRP | -0.1
RRIRGRPPRLPRPRPRPKNLPRP | 0.121
RRIRQRPPRLPRPRPRPAVWPRP | 0.939
RRIRIRPPRLPRPRPRPDWTPRP | 0.0313
RRIRTRPPRLPRPRPRPLVGPRP | 0.131
RRIRRRPPRLPRPRPRPVQFPRP | 0.0855
RRIRNRPPRLPRPRPRPWGGPRP | -0.113
RRIRWRPPRLPRPRPRPHSAPRP | -0.0726
RRIRLRPPRLPRPRPRPPNGPRP | -0.0536
RRIRTRPPRLPRPRPRPIEEPRP | 0.0678
RRIRWRPPRLPRPRPRPCCEPRP | -0.00563

Sequence | shrunken log2 fold change
RRIRARPPRLPRPRPRPSILPRP | -0.156
RRIRMRPPRLPRPRPRPTKAPRP | 0.26
RRIRTRPPRLPRPRPRPPMWPRP | 0.0903
RRIRMRPPRLPRPRPRPKDVPRP | -0.000921
RRIRERPPRLPRPRPRPPSHPRP | -0.209
RRIRSRPPRLPRPRPRPGIEPRP | 0.158
RRIRDRPPRLPRPRPRPCGAPRP | 0.838
RRIRLRPPRLPRPRPRPKPHPRP | 0.207
RRIRCRPPRLPRPRPRPGGPPRP | 0.108
RRIRRRPPRLPRPRPRPMSKPRP | 0.404
RRIRQRPPRLPRPRPRPRWEPRP | 0.0653
RRIRQRPPRLPRPRPRPSHEPRP | -0.0209
RRIRLRPPRLPRPRPRPVFCPRP | 0.14
RRIRVRPPRLPRPRPRPLRSPRP | 0.132
RRIRKRPPRLPRPRPRPSFGPRP | -0.324
RRIRQRPPRLPRPRPRPLKEPRP | -0.0182
RRIRMRPPRLPRPRPRPGHGPRP | 0.32
RRIRTRPPRLPRPRPRPRNDPRP | -0.227
RRIRCRPPRLPRPRPRPVDDPRP | 0.157
RRIRSRPPRLPRPRPRPERLPRP | 0.131
RRIRRRPPRLPRPRPRPKFEPRP | 0.0131
RRIRDRPPRLPRPRPRPSAVPRP | 0.291
RRIRNRPPRLPRPRPRPYTQPRP | -0.798
RRIRSRPPRLPRPRPRPFSVPRP | -0.416
RRIRNRPPRLPRPRPRPMPIPRP | -0.0173

Sequence | shrunken log2 fold change
RRIRHRPPRLPRPRPRPFASPRP | -0.182
RRIRIRPPRLPRPRPRPNTLPRP | -0.818
RRIRNRPPRLPRPRPRPNAPPRP | -0.194
RRIRRRPPRLPRPRPRPEDGPRP | 0.445
RRIRIRPPRLPRPRPRPHKHPRP | -0.881
RRIRSRPPRLPRPRPRPKKCPRP | -0.0782
RRIRWRPPRLPRPRPRPDMVPRP | 0.0298
RRIRARPPRLPRPRPRPAYGPRP | 0.0552
RRIRERPPRLPRPRPRPIIAPRP | -0.106
RRIRRRPPRLPRPRPRPGEFPRP | -0.0272
RRIRIRPPRLPRPRPRPGYPPRP | -0.173
RRIRDRPPRLPRPRPRPKDQPRP | -0.111
RRIRGRPPRLPRPRPRPDWIPRP | 0.243
RRIRKRPPRLPRPRPRPYQIPRP | -0.000276
RRIRKRPPRLPRPRPRPHGMPRP | -0.00215
RRIRPRPPRLPRPRPRPEHRPRP | 0.0967
RRIRPRPPRLPRPRPRPQKPPRP | 0.163
RRIRKRPPRLPRPRPRPPIKPRP | 0.0648
RRIRARPPRLPRPRPRPEICPRP | 1.01
RRIRFRPPRLPRPRPRPDQRPRP | -0.325
RRIRSRPPRLPRPRPRPDQLPRP | -0.167
RRIRCRPPRLPRPRPRPASCPRP | 0.209
RRIRQRPPRLPRPRPRPSWRPRP | 0.0854
RRIRVRPPRLPRPRPRPWHKPRP | -0.127
RRIRWRPPRLPRPRPRPCCSPRP | -0.0402

Sequence | shrunken log2 fold change
RRIRERPPRLPRPRPRPVQCPRP | 0.00166
RRIRSRPPRLPRPRPRPIFKPRP | -0.186
RRIRFRPPRLPRPRPRPNGQPRP | -0.0712
RRIRFRPPRLPRPRPRPNFVPRP | -0.269
RRIRYRPPRLPRPRPRPMSVPRP | -0.0288
RRIRRRPPRLPRPRPRPCPIPRP | 0.0892
RRIRARPPRLPRPRPRPMGLPRP | 0.00193
RRIRKRPPRLPRPRPRPGKWPRP | 0.184
RRIRCRPPRLPRPRPRPTPIPRP | 0.244
RRIRERPPRLPRPRPRPMAPPRP | 1.59
RRIRQRPPRLPRPRPRPHEWPRP | 0.114
RRIRRRPPRLPRPRPRPGWKPRP | 0.136
RRIRRRPPRLPRPRPRPNHIPRP | -0.502
RRIRDRPPRLPRPRPRPEWHPRP | 0.623
RRIRGRPPRLPRPRPRPFRIPRP | -0.212
RRIRQRPPRLPRPRPRPKSVPRP | -0.0026
RRIRWRPPRLPRPRPRPNVWPRP | -0.308
RRIRHRPPRLPRPRPRPCRTPRP | 0.00884
RRIRNRPPRLPRPRPRPCWMPRP | -0.18
RRIRCRPPRLPRPRPRPYGLPRP | -0.0136
RRIRHRPPRLPRPRPRPMGCPRP | -0.000946
RRIRDRPPRLPRPRPRPTANPRP | 0.877
RRIRDRPPRLPRPRPRPQKDPRP | -0.294
RRIRNRPPRLPRPRPRPVSPPRP | -0.087
RRIRNRPPRLPRPRPRPNVCPRP | 0.00455

Sequence | shrunken log2 fold change
RRIRDRPPRLPRPRPRPHNPPRP | -0.231
RRIRSRPPRLPRPRPRPTMAPRP | 0.173
RRIRFRPPRLPRPRPRPEGMPRP | -0.0976
RRIRTRPPRLPRPRPRPGREPRP | 0.0772
RRIRVRPPRLPRPRPRPDASPRP | 0.0719
RRIRNRPPRLPRPRPRPYNKPRP | -0.963
RRIRGRPPRLPRPRPRPINHPRP | -0.0462
RRIRHRPPRLPRPRPRPAVKPRP | -0.0915
RRIRYRPPRLPRPRPRPNTHPRP | -1.02
RRIRLRPPRLPRPRPRPSVTPRP | -0.267
RRIRIRPPRLPRPRPRPWFTPRP | -0.563
RRIRSRPPRLPRPRPRPLVHPRP | -0.253
RRIRARPPRLPRPRPRPETMPRP | 0.0902
RRIRYRPPRLPRPRPRPEGLPRP | -0.0136
RRIRQRPPRLPRPRPRPTKTPRP | 0.298
RRIRARPPRLPRPRPRPLMHPRP | 0.446
RRIRNRPPRLPRPRPRPQLPPRP | -0.352
RRIRMRPPRLPRPRPRPNKHPRP | -0.158
RRIRWRPPRLPRPRPRPNLEPRP | 0.322
RRIRLRPPRLPRPRPRPSSFPRP | -0.0574
RRIRGRPPRLPRPRPRPILFPRP | 0.257
RRIRVRPPRLPRPRPRPFRCPRP | -0.123
RRIRSRPPRLPRPRPRPEYKPRP | 0.0361
RRIRMRPPRLPRPRPRPNPGPRP | 0.0378
RRIRERPPRLPRPRPRPMFWPRP | 0.0831

Sequence | shrunken log2 fold change
RRIRYRPPRLPRPRPRPECVPRP | -0.282
RRIRSRPPRLPRPRPRPKHMPRP | 0.00683
RRIRLRPPRLPRPRPRPSMDPRP | -0.327
RRIRNRPPRLPRPRPRPRPKPRP | 0.719
RRIRSRPPRLPRPRPRPYPCPRP | 0.0185
RRIRYRPPRLPRPRPRPYETPRP | 0.112
RRIRYRPPRLPRPRPRPSNCPRP | -0.107
RRIRTRPPRLPRPRPRPKNRPRP | -0.0821
RRIRFRPPRLPRPRPRPQMMPRP | -0.313
RRIRHRPPRLPRPRPRPPWAPRP | 0.226
RRIRTRPPRLPRPRPRPFHEPRP | -0.126
RRIRWRPPRLPRPRPRPTDPPRP | 0.374
RRIRARPPRLPRPRPRPPGCPRP | 0.746
RRIRSRPPRLPRPRPRPPSQPRP | 0.235
RRIRRRPPRLPRPRPRPYLVPRP | -0.0711
RRIRCRPPRLPRPRPRPHNNPRP | -0.991
RRIRSRPPRLPRPRPRPHFDPRP | 0.0286
RRIRARPPRLPRPRPRPMWQPRP | -0.00908
RRIRSRPPRLPRPRPRPTSLPRP | 0.074
RRIRERPPRLPRPRPRPQVCPRP | -0.245
RRIRKRPPRLPRPRPRPFVAPRP | 0.115
RRIRFRPPRLPRPRPRPPEQPRP | -0.0209
RRIRLRPPRLPRPRPRPYDPPRP | -0.109
RRIRGRPPRLPRPRPRPCYIPRP | 0.0972
RRIRGRPPRLPRPRPRPFMNPRP | -0.116
